This note sets out measurements from US20060088535.

The data set concerns ApCREB-1 (Aplysia californica). The experiment in a line: cell_activity. The following applies: F9 cells with PKA; 2.13 without PKA; 1.64 with ApCREB-2 plus PKA.

Take “TGACGTCA (double strand) [single CRE palindrome in pGL3-CRE reporter]”: the activity (fold activation) was 10.5.
